Biological target: TAB1 (full length, 60-kDa isoform) (human (endogenous in primary CD4+ T cells)) (UniProt Q15750)
Test: co-IP

UniProt Q15750, sequence (Q15750 whole entry, canonical isoform): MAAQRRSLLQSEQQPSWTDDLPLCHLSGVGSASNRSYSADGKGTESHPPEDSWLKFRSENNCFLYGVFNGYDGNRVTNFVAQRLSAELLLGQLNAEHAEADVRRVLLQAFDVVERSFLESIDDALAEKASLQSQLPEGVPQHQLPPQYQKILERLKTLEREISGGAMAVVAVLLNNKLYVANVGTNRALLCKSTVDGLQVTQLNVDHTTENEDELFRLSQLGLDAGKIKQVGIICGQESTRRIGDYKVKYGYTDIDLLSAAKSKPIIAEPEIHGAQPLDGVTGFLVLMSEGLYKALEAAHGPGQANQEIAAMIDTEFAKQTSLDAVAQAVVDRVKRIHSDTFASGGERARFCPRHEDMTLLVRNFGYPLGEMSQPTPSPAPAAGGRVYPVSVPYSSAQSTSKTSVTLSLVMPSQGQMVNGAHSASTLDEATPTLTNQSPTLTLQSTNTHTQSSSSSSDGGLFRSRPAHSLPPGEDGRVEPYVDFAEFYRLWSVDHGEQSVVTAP

fold increase of p38 in TAB1 immunoprecipitates with A-769662 over DMSO control: 2.5 to 3 fold
Substance: p38 MAP kinase (total p38) (from UniProt Q16539 1-360) (enzyme)
